Assay results as given in US20050065327A1 (AstraZeneca / MedImmune, published 2005).

Columns and labels:
Assay in all cases: cell-based or functional assay
[1] = target: non-human primate IL-13 (rhesus and cynomolgus, identical sequences) with carboxyl terminus affinity tag … (rhesus and cynomolgus monkey)
[2] = target: human IL-13 (recombinant, bacterially derived, Peprotech) (human, UniProt P35225 15-146)
[3] = target: native (naturally occurring) human IL-13 released from HDLM-2 cells (human, UniProt P35225 15-146)
Sequence of native (naturally occurring) human IL-13 released from HDLM-2 cells (P35225 other isoform, or with tags, fused parts or gaps): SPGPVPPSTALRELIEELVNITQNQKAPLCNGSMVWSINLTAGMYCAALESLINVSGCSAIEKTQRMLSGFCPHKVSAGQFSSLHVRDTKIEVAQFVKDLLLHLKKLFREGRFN

Sequence of human IL-13 (recombinant, bacterially derived, Peprotech) (P35225 other isoform, or with tags, fused parts or gaps): as above
Sequence of non-human primate IL-13 (rhesus and cynomolgus, identical sequences) with carboxyl terminus affinity tag … (rhesus and cynomolgus monkey) (Q864V6 19-132): as the sequence (P35225 other isoform, or with tags, fused parts or gaps) above, with G3S, P7R, R12K, M44V, S69N, H85R, L102V counted along it

Mean TF1 IC50 [2] [nM]	Binder	other results
–	BAK502G9 IgG4 (antibody, V domains shown) VH: QVQLVQSGAEVKKPGASVKVSCKASGYTFTNYGLSWVRQAPGQGLEWMGWISANNGDTNYGQEFQGRVTMTTDTSTSTAYMELRSLRSDDTAVYYCARDSSSSWARWFFDLWGRGTLVTVSS VL: SYVLTQPPSVSVAPGKTARITCGGNIIGSKLVHWYQQKPGQAPVLVIYDDGDRPSGIPERFSGSNSGNTATLTISRVEAGDEADYYCQVWDTGSDPVVFGGGTKLTVL	IC50, TF-1 cell proliferation assay [1]: 2 nM
8	BAK502G9 scFv (scFv, V domains shown) VH: QVQLVQSGAEVKKPGASVKVSCKASGYTFTNYGLSWVRQAPGQGLEWMGWISANNGDTNYGQEFQGRVTMTTDTSTSTAYMELRSLRSDDTAVYYCARDSSSSWARWFFDLWGRGTLVTVSS VL: SYVLTQPPSVSVAPGKTARITCGGNIIGSKLVHWYQQKPGQAPVLVIYDDGDRPSGIPERFSGSNSGNTATLTISRVEAGDEADYYCQVWDTGSDPVVFGGGTKLTVL	–
0.2	BAK1183H4 scFv (scFv, V domains shown) VH: QVQLVQSGAEVKKPGASVKVSCKASGYTFTNYGLSWVRQAPGQGLEWMGWINYDGGNTQYGQEFQGRVTMTTDTSTSTAYMELRSLRSDDTAVYYCARDSSSSWARWFFDLWGRGTLVTVSS VL: SYVLTQPPSVSVAPGKTARITCGGNIIGSKLVHWYQQKPGQAPVLVIYDDGDRPSGIPERFSGSNSGNTATLTISRVEAGDEADYYCQVWDTGSDPVVFGGGTKLTVL	–
0.2	BAK1167F2 scFv (scFv, V domains shown) VH: QVQLVQSGAEVKKPGASVKVSCKASGYTFEQTGVSWVRQAPGQGLEWMGWISANNGDTNYGQEFQGRVTMTTDTSTSTAYMELRSLRSDDTAVYYCARDSSSSWARWFFDLWGRGTLVTVSS VL: SYVLTQPPSVSVAPGKTARITCGGNIIGSKLVHWYQQKPGQAPVLVIYDDGDRPSGIPERFSGSNSGNTATLTISRVEAGDEADYYCQVWDTGSDPVVFGGGTKLTVL	–
–	BAK1183H4 IgG4 (antibody, V domains shown) VH: QVQLVQSGAEVKKPGASVKVSCKASGYTFTNYGLSWVRQAPGQGLEWMGWINYDGGNTQYGQEFQGRVTMTTDTSTSTAYMELRSLRSDDTAVYYCARDSSSSWARWFFDLWGRGTLVTVSS VL: SYVLTQPPSVSVAPGKTARITCGGNIIGSKLVHWYQQKPGQAPVLVIYDDGDRPSGIPERFSGSNSGNTATLTISRVEAGDEADYYCQVWDTGSDPVVFGGGTKLTVL	IC50, HDLM-2 cell proliferation assay [3]: 3500 nM
